Data reported in the supplement of paper PMC9732359.
± gives the uncertainty stated by the source.

Assay: protein stability index of a GFP-peptide fusion (yeast GPS) (PSI 1-4); higher = more stable; sorted into four equal gates, so the index is relative within each strain
How it was run: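 Plasmids in a pooled yeast library fused tiled 17-residue yeast protein peptides downstream of GFP and also expressed Cherry. Mid-log cultures grown without leucine were sorted into four equal gates by GFP/Cherry fluorescence ratio. Each gate's plasmids were PCR-amplified and Illumina-sequenced, and reads were matched to strains by barcodes. The protein stability index is derived by multiplying each gate's read frequency by its gate number and summing the results.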

Sequence | protein stability index (doa10∆) | protein stability index (pdr5∆) | protein stability index (ubr1∆) | protein stability index (san1∆)
TKLHSGDYGEEEDADQE [SRB8] | 2.5 ± 0.16 | 2.58 ± 0.12 | 2.38 ± 0.2 | –
DKKNSSDPNNQSLNEMV [YJL039C/NUP192] | 3.07 ± 0.1 | 3.24 ± 0.11 | 3.35 ± 0.071 | 3.16 ± 0.087
ENGERKLYDAKRYTSEG [YMR129W/POM152] | 3.35 ± 0.12 | 2.92 ± 0.1 | 3.29 ± 0.085 | 2.96 ± 0.1
AMNDACYEKVLESINEG [BRR2] | 3.15 ± 0.12 | 2.82 ± 0.17 | 3.37 ± 0.2 | 2.91 ± 0.095
ALEEGLNEEAVIFLSSL [YJL039C/NUP192] | 3.28 ± 0.1 | 3.05 ± 0.062 | 2.99 ± 0.065 | 3 ± 0.07
SKKVLECLPAEGHDWKA [DIS3] | 1.65 ± 0.13 | 1.69 ± 0.13 | 1.55 ± 0.07 | 1.47 ± 0.1
IDEVDSIATKRFDAQTG [RPT3] | 3.12 ± 0.12 | 3.18 ± 0.076 | 3.38 ± 0.1 | 2.93 ± 0.075
ILQYSRTWYESFCGFLL [YJR042W/NUP85] | 2.11 ± 0.061 | 1.72 ± 0.049 | 1.42 ± 0.067 | 1.39 ± 0.14
NLTYSSGLFVDVKKRTY [RPB2] | 2.31 ± 0.052 | 2.58 ± 0.051 | 2 ± 0.031 | 2.4 ± 0.071
SQQLLEILVTELTAQGY [RPN2] | 1.65 ± 0.077 | 2.19 ± 0.079 | 1.77 ± 0.066 | 1.93 ± 0.13
LLDFNTALKQYEKELMG [RPN6] | 3.14 ± 0.25 | 3.33 ± 0.19 | 3.12 ± 0.13 | 3.32 ± 0.25
KKCLKLAYENKITDKED [POP4] | 2.698 ± 0.022 | 2.785 ± 0.027 | 3.032 ± 0.025 | 2.797 ± 0.02
DDEGSFAQENSELAVAT [SRB6] | 3.08 ± 0.065 | 3.25 ± 0.075 | 3.3 ± 0.054 | 3.08 ± 0.054
LKAAFVAIGNTYGFLTP [RPS2] | 2.13 ± 0.072 | 2.27 ± 0.048 | 2.55 ± 0.042 | 2.07 ± 0.095
ERSAGNIVQVFKKAAPS [RPB2] | 2.6 ± 0.12 | 2.53 ± 0.14 | 2.91 ± 0.27 | 2.52 ± 0.11
PSVIHSSVEMLLDVVKG [YDL116W/NUP84] | 2.56 ± 0.085 | 1.85 ± 0.11 | 1.42 ± 0.038 | 2.2 ± 0.057
EESSTGKSTADVKSSDS [YJL041W/NSP1] | – | 3.35 ± 0.19 | – | –
IFEKELMYQIKKECALL [SRB4] | 2.87 ± 0.28 | 3.2 ± 0.21 | 3.44 ± 0.19 | 2.61 ± 0.26
KVKNFGVWVRYDSRSGT [RPL20A] | – | 2.74 ± 0.1 | 2.55 ± 0.24 | –
IIVAGYDDKNKGEVYTI [PRE3] | 3 ± 0.083 | 3.12 ± 0.096 | 3.45 ± 0.098 | 3.42 ± 0.089
FTNIISRNKALELNLSV [YJL039C/NUP192] | 2.64 ± 0.11 | 2.78 ± 0.087 | 2.69 ± 0.088 | 2.62 ± 0.12
PNLATFISSGTSLLDSL [YJL039C/NUP192] | 2.23 ± 0.047 | 2.6 ± 0.046 | 2.1 ± 0.037 | 2.23 ± 0.057
GLDKFSNIDIRVRVTGG [RPS16A] | 1.51 ± 0.082 | 1.74 ± 0.072 | 1.54 ± 0.055 | 1.52 ± 0.22
AKVVVTTSRFSKQVTDY [FAS2] | 3.08 ± 0.084 | 2.71 ± 0.082 | 3.15 ± 0.058 | 3.12 ± 0.055
AGVPRQAINLGQVVLTP [RPL14A] | 2.09 ± 0.15 | 2.64 ± 0.13 | 2.04 ± 0.21 | 1.58 ± 0.23
MTTVSGRDAFHLRVRVH [RPL10] | 1.33 ± 0.16 | – | – | –
LKNIMKVSDPYVPTRNT [RPN4] | 3.07 ± 0.15 | 2.67 ± 0.18 | 2.59 ± 0.11 | 2.78 ± 0.071

Sequence | protein stability index (doa10∆) | protein stability index (pdr5∆) | protein stability index (ubr1∆) | protein stability index (san1∆)
AMDRAHRIGQKKQVHVY [ISW2] | 2.71 ± 0.095 | 2.75 ± 0.078 | 2.66 ± 0.074 | 2.84 ± 0.085
FKSALANLEDIIFEIEK [RRP6] | 3.21 ± 0.13 | 3.13 ± 0.096 | 2.83 ± 0.12 | 3.2 ± 0.071
MAGLKDVVTREYTINLH [RPL31A] | 3.02 ± 0.15 | 3.06 ± 0.14 | 3.29 ± 0.16 | 3.01 ± 0.08
AEMEADSLASELTLAEQ [SMC4] | – | – | 3.39 ± 0.26 | 2.94 ± 0.15
DNRTKSTTIKNIDILNR [SMC4] | 1.85 ± 0.062 | 2.07 ± 0.062 | 1.67 ± 0.08 | 1.77 ± 0.15
TNAPLRTLNIQPEVAVK [YIL149C/MLP2] | 2.08 ± 0.051 | 2.03 ± 0.048 | 2.23 ± 0.042 | 1.65 ± 0.096
AHKGQIVLIKGISSAYI [SNU114] | 1.56 ± 0.07 | 1.48 ± 0.064 | 1.86 ± 0.053 | 1.89 ± 0.069
LTRNAPLDSKDENFASV [SNF2] | 3.04 ± 0.08 | 3.2 ± 0.079 | 3.1 ± 0.074 | 3.07 ± 0.067
TRTVITDWDPQFNAITG [SMC2] | 2.96 ± 0.099 | 2.99 ± 0.083 | 2.76 ± 0.098 | 2.67 ± 0.1
KRKLLEHRRYDDQLKQR [RPT4] | 2.04 ± 0.27 | 2.1 ± 0.22 | 1.92 ± 0.17 | 1.42 ± 0.23
GVGILYKGMASNDERIV [BRR2] | 2.44 ± 0.098 | 2.23 ± 0.081 | 3.15 ± 0.09 | 1.79 ± 0.11
MDALYEKIWFAISKENL [SIR3] | 2.21 ± 0.06 | 1.95 ± 0.052 | 1.27 ± 0.047 | 1.51 ± 0.088
CRKLSFSDKVNALWILV [ITC1] | 1.72 ± 0.075 | 1.8 ± 0.044 | 1.85 ± 0.051 | 1.5 ± 0.1
IVNGTEKVILVQEQLSK [RET1] | 1.54 ± 0.13 | 2.22 ± 0.057 | 2.29 ± 0.088 | 1.53 ± 0.11
MEGQKLDDPVLNAIVSK [YJR042W/NUP85] | 3.27 ± 0.19 | 3.2 ± 0.2 | 3.21 ± 0.17 | –
KQIIVTRKAMLDPLEVH [PRP8] | 3.11 ± 0.094 | 3.13 ± 0.071 | 3.05 ± 0.055 | 3.16 ± 0.062
HVLRGVESPDKNVRFRV [YCG1] | – | 3.68 ± 0.2 | – | 3.16 ± 0.15
DSELNRALFETKLNLHC [RRI1] | 2.75 ± 0.067 | 2.79 ± 0.053 | 2.92 ± 0.055 | 3 ± 0.038
LMEKNRIRKLTGQNFLT [REC8] | 1.36 ± 0.044 | 1.37 ± 0.038 | 1.33 ± 0.041 | 1.65 ± 0.077
LRDSLADKIVDEFPELK [NUT2] | 2.76 ± 0.098 | 2.41 ± 0.069 | 1.44 ± 0.051 | 1.97 ± 0.23
PQNGNINNNINIPQQQQ [GAL11] | 3.32 ± 0.095 | 3.02 ± 0.12 | 2.97 ± 0.077 | 3.21 ± 0.082
FKLQEEERERKDQYVPE [RPS17A] | 3.14 ± 0.14 | 3.38 ± 0.091 | 3.24 ± 0.093 | 3.4 ± 0.061
ISKKLQFSYLSSTLGID [PCI8] | 2.08 ± 0.055 | 1.67 ± 0.054 | 1.63 ± 0.044 | 1.49 ± 0.097
LEDKLRAVLTPLITRHC [RRP46] | 2.53 ± 0.059 | 2.2 ± 0.05 | 2.44 ± 0.035 | 2.33 ± 0.064
QRDAVTLFCCLLRSRLA [RPO21] | 1.78 ± 0.045 | 1.92 ± 0.044 | 1.98 ± 0.041 | 1.85 ± 0.057
VDSKTKEPVDDKDVKAK [FAS2] | 2.31 ± 0.24 | – | 3.28 ± 0.16 | 2.28 ± 0.13
QQTAQTQLEQQRQLLVQ [SNF5] | 3.12 ± 0.12 | 3.15 ± 0.14 | 2.49 ± 0.072 | –
